The record followed here is publication PMC6684588.

Assay [1] has as its target growth differentiation factor 11 (GDF11) (UniProt O95390).
In assay [2] the target is activin B (UniProt P09529).
Assay [3] addresses activin A (UniProt P08476).
The target of assay [4] is myostatin (GDF8) (UniProt O14793).
The target of assay [5] is growth differentiation factor 11 (GDF11) (UniProt O95390). This is another data set of the same source.
The target of assay [6] is activin B (UniProt P09529). This is another data set of the same source.
Assay [7] has as its target activin A (UniProt P08476). The source holds these as a separate data set.
For assay [8], the target named is myostatin (GDF8) (UniProt O14793). This is another data set of the same source.
In the next assay the target is ACE-083 (human). Put plainly: SPR; detailed kinetics: ACE-083 captured on immobilized goat anti-human Fc-specific antibody; two-fold series of BMP6 (0.156 nM-5 nM) and BMP7 (0.078 nM-5 nM) injected in duplicate, association 210 sec, dissociation 600 sec, 100 μl/min; global fit to 1:1 model with mass transport term (BIAevaluation); means of two flow cells. Background: In SPR one partner is held on a chip, and binding of the other changes the refractive index at the surface.

The target of assay [9] is ACE-083 (FST291-Fc fusion protein) (human). In words: SPR; Biacore T100, capture format at 37 °C; ACE-083 captured on an anti-human IgG Fc sensor chip, ligands injected as analytes in a concentration series in duplicate; association 210 sec, dissociation 600 sec (1200 sec for activin A and GDF11); global fit to a 1:1 binding model with mass transfer term; apparent KD.

Take ACE-083 (FST291-Fc fusion protein): the IC50 of inhibition of GDF11 signaling through its cognate receptors, CAGA12 dual-luciferase reporter-gene assay in A204 cells in assay [1] was determined as 75.9 pM. In the assay with activin B [2], the IC50 of inhibition of activin B signaling through its cognate receptors, CAGA12 dual-luciferase reporter-gene assay in A204 cells turned out to be 49.2 pM. This molecule also gave an IC50 of inhibition of activin A signaling through its cognate receptors, CAGA12 dual-luciferase reporter-gene assay in A204 cells with activin A [3] of 39.2 pM. The same molecule yielded an IC50 of inhibition of GDF8 signaling through its cognate receptors, CAGA12 dual-luciferase reporter-gene assay in A204 cells with myostatin (GDF8) [4] of 676 pM.
Consider ACE-083 (Fc fusion), for which the Supplementary Figure S2: IC50 of ACE-083 for inhibition of GDF11 signalling through its cognate receptors, luciferase reporter-gene assay in A204 cells (representative curve of three experiments) in [5] turned out to be 8.04 ng/mL. The molecule further returned a Supplementary Figure S2: IC50 of ACE-083 for inhibition of activin B signalling through its cognate receptors, luciferase reporter-gene assay in A204 cells (representative curve of three experiments) in the assay with activin B [6] of 4.75 ng/mL. Also, the Supplementary Figure S2: IC50 of ACE-083 for inhibition of activin A signalling through its cognate receptors, luciferase reporter-gene assay in A204 cells (representative curve of three experiments) with activin A [7] was 4.63 ng/mL. Moreover, the Supplementary Figure S2: IC50 of ACE-083 for inhibition of GDF8 signalling through its cognate receptors, luciferase reporter-gene assay in A204 cells (representative curve of three experiments) with myostatin (GDF8) [8] turned out to be 81.9 ng/mL.
A word on the koff: it is the first-order rate constant of dissociation. Usually kon stands for the second-order rate constant of association. “BMP7 (from UniProt P18075 293-431) (ligand)”: in the assay with ACE-083 (human), the Kd worked out at 291 pM, the koff amounted to 0.00196 s⁻¹ and the kon came out at 6.75e+06 M⁻¹ s⁻¹.
Take “myostatin (GDF8) (from UniProt O14793 267-375) (ligand)”: in assay [9], the Kd was found to be 348 pM, the koff was 0.000185 s⁻¹ and the kon worked out at 532000 M⁻¹ s⁻¹.

B1: growth differentiation factor 11 (GDF11) (ligand)
chain: NLGLDCDEHSSESRCCRYPLTVDFEAFGWDWIIAPKRYKANYCSGQCEYMFMQKYPHTHLVQQANPRGSAGPCCTPTKMSPINMLYFNDKQQIIYGKIPGMVVDRCGCS
With B1, in assay [9], the Kd was 15.4 pM, the koff was 7.2e-05 s⁻¹ and the kon is 4.77e+06 M⁻¹ s⁻¹.

B2: activin B (ligand)
chain: GLECDGRTNLCCRQQFFIDFRLIGWNDWIIAPTGYYGNYCEGSCPAYLAGVPGSASSFHTAVVNQYRMRGLNPGTVNSCCIPTKLSTMSMLYFDDEYNIVKRDVPNMIVEECGCA
For B2, in assay [9], the Kd amounted to 10.3 pM, the koff came out at 0.000199 s⁻¹ and the kon turned out to be 1.93e+07 M⁻¹ s⁻¹.

B3: activin A (ligand)
chain: GLECDGKVNICCKKQFFVSFKDIGWNDWIIAPSGYHANYCEGECPSHIAGTSGSSLSFHSTVINHYRMRGHSPFANLKSCCVPTKLRPMSMLYYDDGQNIIKKDIQNMIVEECGCS
For the molecule B3, in [9], the Kd was found to be 78.8 pM, the koff stood at 0.000155 s⁻¹ and the kon was 1.97e+06 M⁻¹ s⁻¹.
